Measured values from patent US20210403578A1 (published 2021).

T1: Fz8-CRD (UniProt Q9H461 32-151, fluorescence-conjugated)
T1 chain: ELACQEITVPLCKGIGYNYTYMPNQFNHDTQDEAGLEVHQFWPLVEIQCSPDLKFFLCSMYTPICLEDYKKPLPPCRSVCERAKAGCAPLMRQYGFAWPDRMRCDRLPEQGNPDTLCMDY

B1: scFv(Onco)-DKK1c (other)
chain: MLLVNQSHQGFNKEHTSKMVSAIVLYVLLAAAAHSAFAADPIELTQPPSVSVAPGQTARISCSGDNIGSFYVHWYQQKPGQAPVLVIYDKSNRPSGIPERFSGSNSGNTATLTISGTQAEDEADYYCQSYANTLSLVFGGGTKLTVLGTTAASGSSGGSSSGAEVQLVESGGGLVQPGGSLRLSCAASGFTFSHYTLSWVRQAPGKGLEWVSVISGDGSYTYYADSVKGRFTISSDNSKNTLYLQMNSLRAEDTAVYYCARNFIKYVFANWGQGTLVTVSGSGSGKMYHTKGQEGSVCLRSSDCASGLCCARHFWSKICKPVLKEGQVCTKHRRKGSHGLEIFQRCYCGEGLSCRIQKDHHQASNSSRLHTCQRHHHHHHH
B2: Fzd8-CRD (receptor)
chain: T1 chain
modifications: fluorescence-conjugated

Experiments:
Fz8-CRD = target: T1, Fz8-CRD; assay: SPR
Fzd1CRD = assay: SPR
Fzd5CRD = assay: SPR
Fzd7CRD = assay: SPR
Fz27C3 = assay: yeast surface titration
Fz27C49 = assay: yeast surface titration

Row | Binder | Kd (Fz8-CRD) [nM] | Kd (Fzd1CRD) [nM] | Kd (Fzd5CRD) [nM] | Kd (Fzd7CRD) [nM] | Kd (Fz27C3) [nM] | Kd (Fz27C49) [nM]
1 | B1 | 1.4 | 1.1 | 0.75 | 0.82 |  | 
2 | B2 |  |  |  |  | ~0.122 | ~0.092
